One experiment deals with PC3 tumor. In words: In vivo efficacy, subcutaneous tumor xenograft. Details: species or system Athymic nu/nu mice. To be noted: intraperitoneal, every fourth day, 5 doses; tumor volume by caliper.
Another experiment deals with T1, EphA2 (Homo sapiens, UniProt P29317).
T1 construct: endogenous in cells; host or cells: HUVEC (human)
In words: EphA2 receptor activation (phosphorylation, immunoprecipitation/Western). As to conditions: HuVec cells. It counts as cell-based. As to the method:
Cells were grown overnight at 37° C./5% CO2 at a concentration of 0.5×10^6 cells per 3 ml of appropriate growth media per well in 6-well tissue culture plates. […] The cells were incubated for 15 minutes at 37° C./5% CO2 to activate EphA2 receptor. Subsequent to activation the cells were washed 1× with cold PBS and lysed on ice with 1% Triton X-100 lysis buffer containing Phosphatase Inhibitor Cocktails 1 and 2 (Sigma) and Complete Protease Inhibitor Cocktail Tablets (Roche), added as per manufacturer's recommendation. D7 α-EphA2 mAb and 50 μl of protein A sepharose beads pre-conjugated to rabbit anti-mouse IgG were mixed with lysate at 4° C. overnight to immunoprecipitate the proteins.
Protein lysates were resolved by 10% Bis-Tris NuPAGE Western gel and transferred electrophoretically to nitrocellulose membranes (Invitrogen) following manufacturer's protocol. […] See also Coffman et al., Cancer Res. 63: 7907-7912, 2003.

A further experiment has as its system HuVec cells. In words: Fluorescent visualization of internalization of α-EphA2 antibodies. It counts as cell-based, human. As to conditions: 50 μg/ml Ab, 20 minutes at 37° C. As for the experimental part:
(§1) Cells (PC3, HUVEC, or CT26) were grown for 24-48 hours at 37° C./5% CO2 at a concentration of 2.5-5.0×10^4 cells per 400 μl of appropriate growth media per chamber on Nunc's Tek II 8-chamber slides. […] Cells were then washed 2× with PBS and cell-surface-bound primary Abs were allowed to internalize by covering the cells with growth media and incubation at 37° C./5% CO2 for 0 minutes, 20 minutes (FIGS. 18A-C and 19), or 60 minutes (FIG. 17).
(§2) Subsequent to internalization, cells were fixed (4% paraformaldehyde), permeabilized (0.5% Triton X-100), and labeled with secondary AlexaFluor 488 goat-α-human IgG Ab (Biosource), with 2× cold PBS washing in between steps.
Finally, the cells were covered with […] Mounting Media with DAPI (Vector Labs) and a coverslip prior to examination and photography with fluorescent confocal microscope. Results of the antibody internalization experiments are shown in the fluorescent microscopy pictures of FIGS. 16, 17, 18A, 18B, 18C, and 19 herein. EphA2 was rapidly internalized in these cell lines upon binding the agonistic EphA2 antibodies.

The subject of another experiment is MDA-MB231 tumor. In words: In vivo efficacy, subcutaneous tumor xenograft. Details: species or system Athymic nu/nu mice. As to conditions: intraperitoneal, every fourth day, 5 doses; tumor volume by caliper.
Another experiment relates to PC3 cells. In words: Fluorescent visualization of internalization of α-EphA2 antibodies. Format: cell-based, human. As to conditions: 50 μg/ml Ab, 20 or 60 minutes at 37° C. As to the method: FIG. 18. […] PC3 cells were labeled with either human α-EphA2 mAb (G5; panels A and B) or R347 isotype control (panel C). Cell surface attached antibodies were then allowed to internalize by incubating the cells under growth conditions for either zero (non-internalized: panels A and C) or […] (internalized: panel B). All cells were then fixed (4% formaldehyde), permeabilized (0.5% Triton X-100), and stained with AlexaFluor 488-Ab prior to addition of antifade mounting media and fluorescent microscopy examination.
as §1, §2
Finally, the cells were covered with […] Mounting Media with DAPI (Vector Labs) and a coverslip prior to examination and photography with fluorescent confocal microscope. […]

Here are results for 4 molecules from patent US20090304721A1, “TOXIN […] RECEPTOR ANTIBODIES” (priority 2005, published 2009).

T1 sequence (P29317 24-976): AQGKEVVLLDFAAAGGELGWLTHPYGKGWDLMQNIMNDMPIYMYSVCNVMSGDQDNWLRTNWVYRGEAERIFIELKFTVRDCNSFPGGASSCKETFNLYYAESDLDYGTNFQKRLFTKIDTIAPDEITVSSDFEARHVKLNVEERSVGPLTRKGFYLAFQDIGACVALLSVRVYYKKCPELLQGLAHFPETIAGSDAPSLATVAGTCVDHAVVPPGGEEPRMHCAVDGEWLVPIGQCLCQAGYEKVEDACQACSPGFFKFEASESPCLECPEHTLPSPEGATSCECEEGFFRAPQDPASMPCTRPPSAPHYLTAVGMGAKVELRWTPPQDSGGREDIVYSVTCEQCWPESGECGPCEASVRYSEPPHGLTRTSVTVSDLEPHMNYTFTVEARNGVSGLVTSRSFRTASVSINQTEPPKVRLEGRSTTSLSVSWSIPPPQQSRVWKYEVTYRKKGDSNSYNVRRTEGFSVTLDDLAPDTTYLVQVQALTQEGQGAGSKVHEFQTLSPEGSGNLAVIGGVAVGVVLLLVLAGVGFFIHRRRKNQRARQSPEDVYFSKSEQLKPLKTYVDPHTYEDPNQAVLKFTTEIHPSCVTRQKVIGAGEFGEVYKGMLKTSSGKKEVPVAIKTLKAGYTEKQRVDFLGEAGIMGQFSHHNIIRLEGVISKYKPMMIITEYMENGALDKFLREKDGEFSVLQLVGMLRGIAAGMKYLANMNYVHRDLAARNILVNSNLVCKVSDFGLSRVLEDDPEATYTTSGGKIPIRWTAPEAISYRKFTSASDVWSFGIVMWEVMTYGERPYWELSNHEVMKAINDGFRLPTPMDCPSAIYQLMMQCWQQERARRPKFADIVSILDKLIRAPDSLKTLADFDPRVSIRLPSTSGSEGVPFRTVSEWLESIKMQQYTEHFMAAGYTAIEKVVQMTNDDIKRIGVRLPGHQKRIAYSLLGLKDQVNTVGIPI
Description for MDA-MB231 tumor: (§3) Athymic nu/nu (Harlan, Somerville, N.J.) female mice 4-6 weeks of age were injected subcutaneously with 5×10^6 tumor cells. […] Each treatment group consisted of groups of mice ranging in number from 10-12.
(§4) Tumor volume measurements were taken with a caliper routinely (1-2 times/week) starting at the initiation of drug treatment.
Description for PC3 tumor: as §3, §4

B1: 3F2vcMMAE: anti-EphA2 antibody 3F2 conjugated to MMAE with a vc linker (conjugate)
VH: EVQLVESGGGVVRPGGSLRLSCAASGFTVSDYSMNWVRQAPGKGLEWIGFIRNKANAYTTEYSASVKGRFTISRDDSKNTLYLQMNSLKTEDTAVYYCTTYPRYHAMDSWGQGTMVTVSS
VL: AIQLTQSPSSLSASVGDRVTITCRASQSISNNLHWYLQKPGQSPQLLIYYGFQSISGVPSRFSGSGSGTDFTLTISSLQPEDFATYYCQQANSWPLTFGGGTKLEIK
modifications: non-natural residues
notes: anti-EphA2 antibody 3F2 conjugated to MMAE with a vc linker
Turning to B1, in the experiment on PC3 tumor, the “PC3 tumor growth in vivo” value is on record as “specifically inhibit”.

B2: 3F2: humanized agonistic monoclonal antibody that binds EphA2; VH/VL SEQ ID NO: 63 and 64 (antibody, V domains shown)
VH: EVQLVESGGGVVRPGGSLRLSCAASGFTVSDYSMNWVRQAPGKGLEWIGFIRNKANAYTTEYSASVKGRFTISRDDSKNTLYLQMNSLKTEDTAVYYCTTYPRYHAMDSWGQGTMVTVSS
VL: AIQLTQSPSSLSASVGDRVTITCRASQSISNNLHWYLQKPGQSPQLLIYYGFQSISGVPSRFSGSGSGTDFTLTISSLQPEDFATYYCQQANSWPLTFGGGTKLEIK
modifications: Antibody Variable Heavy chain; Antibody Variable region
Regarding B2, the EphA2 phosphorylation result with EphA2 is given as “EphA2 phosphorylation”. Besides, the internalization by immunofluorescence result with HuVec cells is “Internalization”.

B3: G5vcMMAF: anti-EphA2 antibody G5 conjugated to MMAF with the valine-citrulline (vc) linker (conjugate)
VH: QMQLVQSGPEVKKPGTSVKVSCKASGFTFTDYSMNWVRQARGQRLEWIGFIRNKANDYTTEYSASVKGRVTITRDMSTSTAYMELSSLRSEDTAVYYCARYPRYHAMDSWGQGTSVTVSS
VL: DIQMTQSPSSLSASVGDRVTITCRASQSISNNLHWYQQKPGKAPKLLIKYVFQSISGVPSRFSGSGSGTDFTFTISSLQPEDFATYYCQQSNSWPLTFGGGTKVEIKG
modifications: non-natural residues
notes: anti-EphA2 antibody G5 conjugated to MMAF with the valine-citrulline (vc) linker
In the case of B3, the “MDA-MB231 tumor growth in vivo” value in the experiment on MDA-MB231 tumor is “specifically inhibited”. The “PC3 tumor growth in vivo” value in the experiment with PC3 tumor is recorded as “specifically inhibited”.

B4: G5: humanized agonistic monoclonal antibody that binds EphA2; VH/VL SEQ ID NO. 103 and 104 (antibody, V domains shown)
VH: QMQLVQSGPEVKKPGTSVKVSCKASGFTFTDYSMNWVRQARGQRLEWIGFIRNKANDYTTEYSASVKGRVTITRDMSTSTAYMELSSLRSEDTAVYYCARYPRYHAMDSWGQGTSVTVSS
VL: DIQMTQSPSSLSASVGDRVTITCRASQSISNNLHWYQQKPGKAPKLLIKYVFQSISGVPSRFSGSGSGTDFTFTISSLQPEDFATYYCQQSNSWPLTFGGGTKVEIKG
modifications: Antibody variable region
Regarding B4, in the experiment on PC3 cells, the internalization by immunofluorescence entry is recorded as “internalization”.
